According to patent publication US20170327598A1 (published 2017):
Like-named read-outs stand apart in the source and are kept apart here.

Experiments:
Experiment in all cases: sandwich ELISA, STAT protein coated at 0.5 µg/mL
STAT 4 protein [1] = target: T1, STAT 4 protein (UniProt Q14765 1-748, limits assumed)
T1 sequence (looked up): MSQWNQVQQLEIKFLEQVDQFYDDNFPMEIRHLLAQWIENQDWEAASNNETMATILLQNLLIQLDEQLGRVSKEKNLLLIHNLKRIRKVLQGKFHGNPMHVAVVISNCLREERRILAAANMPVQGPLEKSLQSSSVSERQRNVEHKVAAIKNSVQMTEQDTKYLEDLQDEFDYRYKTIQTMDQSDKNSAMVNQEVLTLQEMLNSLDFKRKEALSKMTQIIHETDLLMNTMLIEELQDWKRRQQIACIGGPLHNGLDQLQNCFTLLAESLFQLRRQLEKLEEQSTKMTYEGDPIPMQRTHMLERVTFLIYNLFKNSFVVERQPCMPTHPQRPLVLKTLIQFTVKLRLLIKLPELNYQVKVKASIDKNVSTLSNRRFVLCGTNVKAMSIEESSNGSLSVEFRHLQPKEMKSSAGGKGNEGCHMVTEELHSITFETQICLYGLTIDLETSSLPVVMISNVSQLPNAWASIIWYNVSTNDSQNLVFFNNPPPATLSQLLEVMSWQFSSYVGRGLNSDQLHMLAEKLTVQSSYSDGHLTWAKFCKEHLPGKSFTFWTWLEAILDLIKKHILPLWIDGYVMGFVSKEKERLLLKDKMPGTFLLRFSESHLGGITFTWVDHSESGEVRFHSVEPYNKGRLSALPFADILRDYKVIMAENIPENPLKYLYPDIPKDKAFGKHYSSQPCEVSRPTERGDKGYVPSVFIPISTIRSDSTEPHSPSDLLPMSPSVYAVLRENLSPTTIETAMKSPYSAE

STAT 5a protein [2] = target: T2, STAT 5a protein (UniProt P42229 1-794, limits assumed)
T2 sequence (looked up): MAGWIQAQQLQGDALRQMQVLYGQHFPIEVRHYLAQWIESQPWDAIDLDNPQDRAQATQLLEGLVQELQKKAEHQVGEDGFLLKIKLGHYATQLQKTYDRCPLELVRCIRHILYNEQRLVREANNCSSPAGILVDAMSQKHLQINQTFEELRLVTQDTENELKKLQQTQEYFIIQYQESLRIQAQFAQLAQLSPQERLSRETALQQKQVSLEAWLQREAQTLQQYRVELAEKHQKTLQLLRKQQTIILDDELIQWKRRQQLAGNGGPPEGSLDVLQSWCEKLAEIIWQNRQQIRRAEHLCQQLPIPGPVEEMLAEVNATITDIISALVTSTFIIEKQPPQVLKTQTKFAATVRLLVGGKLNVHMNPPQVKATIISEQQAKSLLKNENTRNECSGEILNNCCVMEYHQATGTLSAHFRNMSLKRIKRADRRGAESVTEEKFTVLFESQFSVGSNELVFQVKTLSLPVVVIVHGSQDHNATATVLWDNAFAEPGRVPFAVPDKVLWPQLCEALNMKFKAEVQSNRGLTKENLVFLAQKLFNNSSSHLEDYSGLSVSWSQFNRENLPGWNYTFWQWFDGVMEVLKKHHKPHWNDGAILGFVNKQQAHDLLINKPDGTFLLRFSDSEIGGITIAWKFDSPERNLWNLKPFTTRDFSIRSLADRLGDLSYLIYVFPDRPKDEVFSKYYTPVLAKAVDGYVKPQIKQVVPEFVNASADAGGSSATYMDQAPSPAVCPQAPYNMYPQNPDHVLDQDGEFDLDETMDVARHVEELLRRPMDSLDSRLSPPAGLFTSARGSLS

STAT 3 protein = STAT 3 protein (UniProt P40763 1-770, limits assumed)
STAT 1 protein [3] = target: T3, STAT 1 protein (UniProt P42224 1-750, limits assumed)
T3 sequence (looked up): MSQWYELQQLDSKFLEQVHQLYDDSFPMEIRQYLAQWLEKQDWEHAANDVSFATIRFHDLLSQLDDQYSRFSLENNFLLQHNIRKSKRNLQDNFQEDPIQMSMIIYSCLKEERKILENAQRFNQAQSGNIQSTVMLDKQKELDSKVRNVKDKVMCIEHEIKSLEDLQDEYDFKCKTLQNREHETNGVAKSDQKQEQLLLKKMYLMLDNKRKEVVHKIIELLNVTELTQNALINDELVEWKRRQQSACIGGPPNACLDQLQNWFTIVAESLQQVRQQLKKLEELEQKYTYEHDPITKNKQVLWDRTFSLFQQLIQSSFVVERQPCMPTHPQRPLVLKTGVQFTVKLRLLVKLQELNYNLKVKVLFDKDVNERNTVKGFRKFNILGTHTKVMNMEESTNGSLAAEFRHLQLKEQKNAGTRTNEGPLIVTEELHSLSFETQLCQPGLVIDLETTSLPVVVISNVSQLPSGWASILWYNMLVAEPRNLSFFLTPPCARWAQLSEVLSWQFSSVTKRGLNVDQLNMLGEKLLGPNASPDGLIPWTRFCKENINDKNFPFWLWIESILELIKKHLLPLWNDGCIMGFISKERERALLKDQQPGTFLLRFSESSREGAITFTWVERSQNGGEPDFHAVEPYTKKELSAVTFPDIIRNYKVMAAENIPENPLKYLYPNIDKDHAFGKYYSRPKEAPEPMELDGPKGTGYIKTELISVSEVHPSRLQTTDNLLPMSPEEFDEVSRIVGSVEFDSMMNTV

STAT 2 protein [4] = target: T4, STAT 2 protein (UniProt P52630 1-851, limits assumed)
T4 sequence (P52630 whole entry): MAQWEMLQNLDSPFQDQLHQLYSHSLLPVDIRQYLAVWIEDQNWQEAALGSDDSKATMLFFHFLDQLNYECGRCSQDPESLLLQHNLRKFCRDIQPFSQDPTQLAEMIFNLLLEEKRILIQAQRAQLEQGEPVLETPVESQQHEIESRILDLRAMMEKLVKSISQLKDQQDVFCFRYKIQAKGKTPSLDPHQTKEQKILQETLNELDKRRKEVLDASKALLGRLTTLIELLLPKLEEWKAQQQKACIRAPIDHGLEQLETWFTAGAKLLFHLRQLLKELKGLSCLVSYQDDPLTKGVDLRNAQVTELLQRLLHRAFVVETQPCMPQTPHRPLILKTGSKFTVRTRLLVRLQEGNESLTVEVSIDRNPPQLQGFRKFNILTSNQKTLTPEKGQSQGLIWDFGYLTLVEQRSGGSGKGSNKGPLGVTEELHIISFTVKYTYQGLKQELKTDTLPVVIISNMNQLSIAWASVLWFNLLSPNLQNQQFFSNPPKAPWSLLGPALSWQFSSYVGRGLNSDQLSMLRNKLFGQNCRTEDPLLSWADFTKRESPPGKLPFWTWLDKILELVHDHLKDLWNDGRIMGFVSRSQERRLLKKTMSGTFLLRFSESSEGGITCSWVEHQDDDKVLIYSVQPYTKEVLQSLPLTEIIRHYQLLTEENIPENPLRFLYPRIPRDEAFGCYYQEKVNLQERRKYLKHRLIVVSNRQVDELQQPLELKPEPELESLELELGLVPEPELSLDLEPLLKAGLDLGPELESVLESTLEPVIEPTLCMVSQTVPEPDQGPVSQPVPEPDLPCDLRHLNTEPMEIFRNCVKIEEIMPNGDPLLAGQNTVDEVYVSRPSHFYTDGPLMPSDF

STAT 4 protein [5] = target: T1, STAT 4 protein; remark: listed apart in the source
STAT 5a protein [6] = target: T2, STAT 5a protein; remark: listed apart in the source
STAT 1 protein [7] = target: T3, STAT 1 protein; remark: listed apart in the source
STAT 2 protein [8] = target: T4, STAT 2 protein; remark: listed apart in the source

B1: anti-STAT3 VHH13 (SEQ ID NO:3) sdAb (VHH)
VHH: HVQLVESGGGSVQAGGSLRLSCAASGANGGRSCMGWFRQVPGKEREGVSGISTGGLITYYADSVKGRFTISQDNTKNTLYLQMNSLKPEDTAMYYCATSRFDCYRGSWFNRYMYNSWGQGTQVTVSS
Mean OD450 (STAT 4 protein [1]): 3.14 OD450
Mean OD450 (STAT 5a protein [2]): 2.73 OD450
Mean OD450 (STAT 3 protein): 2.76 OD450
Mean OD450 (STAT 1 protein [3]): 1.94 OD450
Mean OD450 (STAT 2 protein [4]): 1.85 OD450
Mean OD450 (STAT 4 protein [5]): 3.67 OD450
Mean OD450 (STAT 5a protein [6]): 3.32 OD450
Mean OD450 (STAT 1 protein [7]): 3.16 OD450
Mean OD450 (STAT 2 protein [8]): 3.34 OD450
